Results on 1 molecule are retold here after patent US20180094051A1, “METHOD FOR INHIBITING LYMPHANGIOGENESIS BY ADMINISTRATION OF AN INHIBITOR OF THE CXCL12 PATHWAY” (Tsinghua University, priority 2012, published 2018).

“Also recorded” adds a separate entry of the source.

What all share (format): cell-based
For experiment [1], the system named is chemokine receptor CXCR4. Nature of the experiment: Flow cytometry of CXCR4 on the surface of lymphatic endothelial cells. As to conditions: starved mouse lymphatic endothelial cells, 100 ng/mL VEGF-C, 24 hours. On the procedure:
Mouse primary lymphatic endothelial cells at passage 2 or 3 in good condition were selected and seeded into four 6 cm Petri dishes. Two groups of cells were cultured normally, while the other two groups of cells were treated by replacing the medium with a medium free of serum and growth factors when the cell density reached 80%, and starved overnight. One of the two groups was cultured for 24 hours after the medium was replaced with a serum-free culture medium containing 100 ng/mL of VEGF-C. The four groups of cells were detected for the expression level of chemokine receptor CXCR4 on the cell surface by flow cytometry. The group of cells cultured normally was used as negative control.
The cells were treated with 0.25% disodium EDTA (Ethylenediaminetetraacetic Acid Disodium Salt, EDTA), then washed with ice-cold PBS. The cells were suspended and centrifuged at a low speed (600 g, 3 minutes; the low-speed centrifugations in this experiment all referred to centrifugation at this speed for this time). The cells were resuspended in 1 mL of PBS containing 10% goat serum and then incubated for 15 minutes. […]
Each group of cells were resuspended in 1 mL of PBS containing 2% goat serum, and then 1 μg of fluorescein-labeled secondary antibody was added. […] The expression of CXCR4 on cell surface was analyzed by flow cytometry (FACS Calibur Flow Cytometry System, Becton Dickinson).
(In general: Flow cytometry measures light scatter and fluorescence of single cells or particles in a stream.)

The subject of experiment [2] is chemokine receptor CXCR4. Description: Immunoblotting of CXCR4 in lymphatic endothelial cells (incl. HIF-1α RNA interference). The note with it: mouse lymphatic endothelial cells, 100 ng/mL VEGF-C, 6, 12 and 24 hours. On the procedure: Mouse primary lymphatic endothelial cells at passage 2 or 3 in good condition were selected, and starved overnight by replacing the culture medium with a fresh medium free of serum and growth factors. Then the medium was replaced with a medium containing 100 ng/mL of VEGF-C. The cells were incubated for 6, 12 and 24 hours, respectively, and then trypsinized and collected by centrifugation for detecting the expression level of chemokine receptor CXCR4 in the cells by immunoblotting.
The samples were subjected to SDS-PAGE (the concentration of separation gel was 15%). Protein bands were transferred to polyvinylidene difluoride (PVDF) membrane (purchased from Millipore) at 100 mA for 3 hours using an electroblotting device in ice bath. TBST buffer (20 mM Tris, pH7.4, 150 mM NaCl, 0.1% Tween-20) was formulated for preparing blocking solution, primary antibody solution and secondary antibody solution. The PVDF membrane was further incubated in blocking solution containing 5% skim milk for 1 hour at room temperature with gentle shaking. The membrane was then washed with TBST for 5 times, 5 minutes each. […]
The siRNA for interfering with the chemical synthesis of HIF-1α was purchased from Santa Cruz Biotechnology, and the negative control siRNA was purchased from GenePharma, Shanghai. […] HIF-1α knock-down efficiency was detected by immunoblotting. […]
In general terms: Immunoblotting shows a protein as a band on a membrane.

A further experiment has as its system HIF-1α. Description: Immunoblotting of HIF-1α in lymphatic endothelial cells. The note with it: mouse lymphatic endothelial cells, 100 ng/mL VEGF-C.

B1: VEGF-C: Vascular Endothelial Growth Factor C, the major pro-lymphangiogenesis factor; purchased from R&D Systems (protein, UniProt P49767 112-227, looked up)
Vascular endothelial growth …: AHYNTEILKSIDNEWRKTQCMPREVCIDVGKEFGVATNTFFKPPCVSVYRCGGCCNSEGLQCMNTSTSYLSKTLFEITVPLSQGPKPVTISFANHTSCRCMSKLDVYRQVHSIIRR
For the molecule B1, the “cell surface CXCR4 protein level” value in the experiment on chemokine receptor CXCR4 [1] is recorded as “could indeed upregulate the expression level of chemokine receptor CXCR4”. For the same molecule, the “expression level of CXCR4” value in the experiment with chemokine receptor CXCR4 [2] is “could up-regulate the expression of CXCR4 and HIF-1α”. Besides, in the experiment on HIF-1α, the “expression level of HIF-1α” value was “could indeed upregulate the expression level of HIF-1α; also recorded: could up-regulate the expression of CXCR4 and HIF-1α”.
